Data on 3 substances can be found in paper PMC2665295.

Read-outs that look alike come from different tables or passages of the source.

The target of assay [1] is rat αCaMKII (Ca2+/calmodulin-dependent protein kinase II, α subunit) (rat) (UniProt P11275). As to the kind of experiment: ITC.
The target is the same in assay [2]. As to the kind of experiment: ITC. The source holds these as a separate data set. In general terms: In ITC the heat of successive injections is recorded.
Assay [3] has the same target. Kind of assay: ITC. This is another data set of the same source.
Assay [4] shares this target. Kind of assay: ITC. This is another data set of the same source.
Assay [5] shares this target.

Sequence of rat αCaMKII (Ca2+/calmodulin-dependent protein kinase II, α subunit) (rat) (P11275 whole entry): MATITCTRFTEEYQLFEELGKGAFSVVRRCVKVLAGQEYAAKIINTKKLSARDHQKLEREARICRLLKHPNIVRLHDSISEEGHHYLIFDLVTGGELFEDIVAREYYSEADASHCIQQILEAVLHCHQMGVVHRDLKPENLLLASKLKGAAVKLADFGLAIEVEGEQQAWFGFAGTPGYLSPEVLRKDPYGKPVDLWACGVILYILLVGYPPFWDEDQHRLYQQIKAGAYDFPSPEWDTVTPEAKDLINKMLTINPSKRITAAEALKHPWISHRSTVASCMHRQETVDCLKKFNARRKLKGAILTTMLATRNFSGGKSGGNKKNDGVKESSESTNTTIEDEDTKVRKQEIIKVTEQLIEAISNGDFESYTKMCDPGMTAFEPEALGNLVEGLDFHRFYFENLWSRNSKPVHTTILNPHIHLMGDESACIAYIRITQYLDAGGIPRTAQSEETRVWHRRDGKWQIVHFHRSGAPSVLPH

In assay [1], “CaMNN, a chimeric molecule composed of two N-lobes of CaM” gave a Kd1 (binding mode 1) of 18 nM, a Kd2 (binding mode 2) of 360 nM, an N1 (binding mode 1) of 0.36 and an N2 (binding mode 2) of 0.61. In addition, in assay [1], the dH1 (binding mode 1) is -6.3 kcal/mol and the dH2 (binding mode 2) was -14.7 kcal/mol. In assay [2], this substance yielded a Kd1 (binding mode 1) of 0.064 µM, a Kd2 (binding mode 2) of 0.34 µM, an N1 (binding mode 1) of 0.26 and an N2 (binding mode 2) of 0.62. Besides, in assay [2], the dH1 (binding mode 1) amounted to 0.7 kcal/mol and the dH2 (binding mode 2) is -18.1 kcal/mol.

As usually defined, the Kd is the equilibrium constant for the complex coming apart. A high value points to a looser complex. What is called stoichiometry N is a count of units in the complex or per binding partner. As for “wild-type calmodulin (from UniProt P0DP23 1-149) (natural protein; other documents disagree on this pair)”, in assay [2], the Kd is 1320 nM, the dH was -12.8 kcal/mol and the stoichiometry N was determined as 0.83. Also, in assay [3], the Kd stood at 1900 nM, the dH was found to be 1.7 kcal/mol and the stoichiometry N is 0.823. Also, in assay [4], the dH was -11.1 kcal/mol and the stoichiometry N is 1.08.

In the case of “CaMCC, a chimeric molecule composed of two C-lobes of CaM”, in assay [1], the Kd worked out at 360 nM, the dH was -7.3 kcal/mol and the stoichiometry N worked out at 0.979. Moreover, in assay [2], the Kd was determined as 370 nM, the dH was -6.5 kcal/mol and the stoichiometry N is 0.84. In assay [5], the activation of CaMKII (phosphorylation of syntide), K0.5 was determined as 1.4 µM.
